Biological target: T1, peptide substrate KSEVNLDAEFRK derived from the sequence of Swedish amyloid precursor protein
T1 chain: KSEVNLDAEFRK

B1: β-secretase refolded from E. coli overexpression (protein)
chain: TQHGIRLPLRSGLGGAPLGLRLPRETDEEPEEPGRRGSFVEMVDNLRGKSGQGYYVEMTVGSPPQTLNILVDTGSSNFAVGAAPHPFLHRYYQRQLSSTYRDLRKGVYVPYTQGKWEGELGTDLVSIPHGPNVTVRANIAAITESDKFFINGSNWEGILGLAYAEIARPDDSLEPFFDSLVKQTHVPNLFSLQLCGAGFPLNQSEVLASVGGSMIIGGIDHSLYTGSLWYTPIRREWYYEVIIVRVEINGQDLKMDCKEYNYDKSIVDSGTTNLRLPKKVFEAAVKSIKAASSTEKFPDGFWLGEQLVCWQAGTTPWNIFPVISLYLMGEVTNQSFRITILPQQYLRPVEDVATSQDDCYKFAISQSSTGTVMGAVIMEGFYVVFDRARKRIGFAVSACHVHDEFRTAAVEGPFVTLDMEDCGYNIPQTDEST
**Q.** How did the “specificity constant (Kcat/Km)” value turn out when B1 was run?
**A.** 1800 ± 100 M⁻¹ s⁻¹

Reference: patent US7166454
